Experiments:
[1] = biological target: Streptococcus thermophilus Rgg3 (S. thermophilus); assay: cryo-EM structure
[2] = biological target: Streptococcus dysgalactiae Rgg2 (S. dysgalactiae); assay: crystal structure
Rgg3St = biological target: T1, Rgg3St (Streptococcus thermophilus, UniProt Q5M4D0 1-284); assay: X-ray crystallography
T1 sequence: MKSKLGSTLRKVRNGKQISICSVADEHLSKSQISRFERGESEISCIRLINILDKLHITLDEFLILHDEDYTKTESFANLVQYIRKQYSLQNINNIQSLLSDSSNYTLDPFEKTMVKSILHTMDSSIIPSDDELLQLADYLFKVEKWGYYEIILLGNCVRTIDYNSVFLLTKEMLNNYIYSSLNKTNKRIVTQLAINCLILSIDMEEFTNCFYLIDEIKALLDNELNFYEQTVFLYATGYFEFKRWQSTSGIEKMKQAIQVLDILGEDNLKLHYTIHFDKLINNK

“Streptococcus thermophilus Rgg3 (natural protein)” was tested, and the stoichiometry N [1] was 2.

Molecule “Streptococcus dysgalactiae Rgg2 (natural protein)” has a stoichiometry N [2] of 2.

B1: Rgg3 box (pSHP3DNA) (dsDNA)
DNA 1: CATAATTTTCCCATTTCCCCAACAAAAAAG
DNA 2: TTTTTGTTGGGGAAATGGGAAAATTATGCT
B1: binds (Rgg3St).

From doi:10.1101/2020.04.30.069369
